This passage reports MFI results from patent publication US20250313627A1.

In assay [1] the target is human ROR1 (Receptor Tyrosine Kinase-Like Orphan Receptor 1) on the cell surface (human) (UniProt Q01973). Kind of assay: flow cytometry, B16-F10 cells expressing human ROR1 (high density).
The target is the same in assay [2]. The description is as above. This is another data set of the same source.
For assay [3] the target is unchanged. Described as above. This is another data set of the same source.
Assay [4] shares this target. The description is as above. This is another data set of the same source.
Assay [5] shares this target. Described as above. This is another data set of the same source.
For assay [6] the target is unchanged. The assay is described as above. This is another data set of the same source.
Assay [7] has the same target. As to the kind of experiment: flow cytometry, LS174T cells expressing human ROR1 (low density).
Assay [8] shares this target. The description is as above. The source holds these as a separate data set.

human ROR1 (Receptor Tyrosine Kinase-Like Orphan Receptor 1) on the cell surface (human), sequence (Q01973 30-937): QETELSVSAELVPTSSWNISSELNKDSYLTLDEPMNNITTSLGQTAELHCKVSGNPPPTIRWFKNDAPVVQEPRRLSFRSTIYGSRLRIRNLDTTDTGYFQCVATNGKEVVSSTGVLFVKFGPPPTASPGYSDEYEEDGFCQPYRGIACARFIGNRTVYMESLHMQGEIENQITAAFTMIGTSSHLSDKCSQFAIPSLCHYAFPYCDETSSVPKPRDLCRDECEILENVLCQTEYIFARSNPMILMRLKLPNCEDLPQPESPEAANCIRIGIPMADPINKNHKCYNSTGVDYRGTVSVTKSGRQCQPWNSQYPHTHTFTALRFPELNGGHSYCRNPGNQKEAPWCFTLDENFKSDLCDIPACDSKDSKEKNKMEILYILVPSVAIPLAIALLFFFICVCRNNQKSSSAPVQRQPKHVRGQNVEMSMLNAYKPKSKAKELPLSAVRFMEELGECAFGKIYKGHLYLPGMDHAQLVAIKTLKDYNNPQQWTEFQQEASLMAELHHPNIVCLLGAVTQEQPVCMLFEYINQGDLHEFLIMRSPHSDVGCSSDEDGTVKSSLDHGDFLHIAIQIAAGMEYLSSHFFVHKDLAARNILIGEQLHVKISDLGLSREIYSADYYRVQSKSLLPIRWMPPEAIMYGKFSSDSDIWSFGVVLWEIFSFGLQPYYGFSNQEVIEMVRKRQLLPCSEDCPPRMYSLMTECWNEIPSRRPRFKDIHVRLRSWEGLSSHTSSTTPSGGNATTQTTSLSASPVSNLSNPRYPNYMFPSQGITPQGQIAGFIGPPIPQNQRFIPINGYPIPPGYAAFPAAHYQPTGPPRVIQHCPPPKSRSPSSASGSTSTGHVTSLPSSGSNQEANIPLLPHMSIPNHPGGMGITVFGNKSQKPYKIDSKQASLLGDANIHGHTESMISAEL

For the substance “Hen Egg Lysozyme (HEL)-specific antibody”, the MFI in assay [1] was found to be 1140; in assay [2], 12.1; in assay [3], 6.85; in assay [4], 3.86; in assay [5], 9.86; in assay [6], 13.3.

On to Human IgG1 (antibody), for which the MFI in assay [7] is 316; in assay [8], 30.8.

As to “goat anti human IgG-Fc specific PE secondary antibody, alone”, the MFI in assay [7] amounted to 45.3; in assay [1], 125; in assay [2], 15.5; in assay [8], 22.6; in assay [3], 4.45; in assay [4], 3.01. For the same substance, the values for the MFI in assay [5] and in assay [6] were 5.67 and 9.92, respectively.

With “mIgG-PE (PE labeled mouse IgG Ab) (antibody)”, the MFI was 54 in assay [7]; 94.6 in assay [1]; 4.36 in assay [2]; 23.2 in assay [8]; 4.31 in assay [3]; 2.08 in assay [4]. In addition, the MFI in assay [5] was found to be 6.1; in assay [6], 6.53.
